{"source": "patent US20250121104A1", "about": "(FUSION PHARMACEUTICALS, published 2025)", "binders": {"B1": {"name": "RAA22/B09-57 DuetMab (bispecific antibody, V domains shown)", "VH 1": "QVQLVQSGAEVKKPGSSVKVSCKASGGTFSDNDFSWVRQAPGQGLEWMGAIVAVFRTETYAQKFQDRVKITADISTRTTYMELSSLRSEDTAVYYCARRLMSAISGPGAPLLMWGQGTLVTVSS", "VL 1": "QSALTQPRSVSGSPGQSVTISCTGTSSDVGGYNYVSWYQQHPGKAPKLMIYDVSKRPSGVPDRFSGSKSGNTASLTISGLQAEDEADYYCSSYTSSDTLEIFGGGTKLTVL", "VH 2": "QVQLVQSGAEVKKPGASVKVSCKASGYTFTDYYIHWVRQATGQGLEWMGWMNPNSGNTGYAQKFQGRVTMTRDTSISTAYMELSSLRSEDTAVYYCARGQGYTHSWGQGTMVTVSS", "VL 2": "DIQMTQSPSTLSASVGDRVTITCRASEGIYHWLAWYQQKPGKAPKLLIYKASSLASGVPSRFSGSGSGTEFTLTISSLQPDDFATYYCQQYSNYPPTFGGGTKLEIK", "notes": "RAA22 VH on Hole heavy chain (T366S, L368A, Y407V, Y349C) with lambda CL; cysteine insertion after S239; also called RAA22/B09 DuetMab; RAA22/B09 bispecific mAb"}}, "key": {"[1]": {"molecular_target": "T1, Semaphorin 3a (UniProt Q14563 21-771, limits assumed)", "T1 sequence (looked up)": "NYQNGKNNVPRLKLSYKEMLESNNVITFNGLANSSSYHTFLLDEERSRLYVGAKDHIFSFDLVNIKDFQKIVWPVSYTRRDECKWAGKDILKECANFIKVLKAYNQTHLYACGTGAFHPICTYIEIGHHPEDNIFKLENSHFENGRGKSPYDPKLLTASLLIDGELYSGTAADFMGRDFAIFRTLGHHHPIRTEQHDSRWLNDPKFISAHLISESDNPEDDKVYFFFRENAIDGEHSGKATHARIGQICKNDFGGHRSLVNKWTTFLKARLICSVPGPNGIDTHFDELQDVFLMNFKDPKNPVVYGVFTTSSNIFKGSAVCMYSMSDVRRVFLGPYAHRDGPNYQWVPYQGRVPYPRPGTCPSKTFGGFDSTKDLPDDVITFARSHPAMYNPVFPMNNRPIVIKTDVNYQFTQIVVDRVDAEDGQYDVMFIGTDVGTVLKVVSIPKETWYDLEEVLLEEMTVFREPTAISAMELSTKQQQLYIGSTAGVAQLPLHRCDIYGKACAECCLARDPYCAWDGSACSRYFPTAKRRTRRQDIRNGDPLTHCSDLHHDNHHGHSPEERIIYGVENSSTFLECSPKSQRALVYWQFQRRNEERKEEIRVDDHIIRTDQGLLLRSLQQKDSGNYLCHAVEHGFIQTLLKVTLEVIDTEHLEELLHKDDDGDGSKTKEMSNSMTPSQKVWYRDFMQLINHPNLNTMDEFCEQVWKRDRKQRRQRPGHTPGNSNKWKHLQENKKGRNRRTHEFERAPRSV", "assay": "ELISA, antigen coated at 1 µg/mL, antibody titrated from 10 µg/mL"}, "[2]": {"molecular_target": "T2, EGFR and cMET co-expressed on the surface of tumour cell lines (HCC827, HT29, H441, H1975) (UniProt P00533 25-1210; P08581 25-1390)", "T2 construct": "whole, on cells; Target of the bispecific molecules on cells that carry both receptors; the cell line of each value stands under assay; also called EGFR and c-MET expressing cell line; EGFR and/or cMET expressing cell lines", "assay": "confocal fluorescence microscopy, AlexaFluor647-labelled antibody pre-bound to cells, T=0", "method": "Unincorporated CellTracker™ Blue CMAC dye was removed by two washes with phenol-free RPMI using centrifugation at 300×g for 5 min at 4° C. Cells were then chilled on ice and blocked with the 10 ul FcR Blocking Reagent per 1×10^6 cells for 15 minutes. 2×10⁵ cells were aliquoted into 5 mL round-bottomed tubes and incubated with fluorescent antibodies at a final concentration of 2.5 μg/mL. After removal of unbound fluorescent reagents by centrifugation at 4° C., cells were resuspended in phenol-free RPMI containing 100 mM HEPES, 1 mM sodium pyruvate, and 1% FBS. Cells were transferred into multiple wells of a 384-well imaging plate at a density of 5,000 cells per well, and briefly centrifuged at 2,200 rpm for 2 min at 4° C. prior to image acquisition."}}, "data": [{"binder": "B1", "values": [{"measurement": "binding result", "setting": "[1]", "value": "no binding (tested: 10 µg/mL)"}, {"measurement": "fold binding on HCC827 cells over H1975 cells", "setting": "[2]", "value": 8.9, "unit": "fold"}]}]}
